Laboratory results as given in a protein production outcome set (Wang et al. 2014).

Experiment: label from the status in PepcDB records
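Further: failed if final PepcDB status was selected cloned or expressed and not failed if soluble or beyond.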

Row | Sequence | protein production
1 | MEIKYLSLCILAGILFVSQVNASENNGKDDVKYAALTQKDLDALPVEKRASVLDELGFIHEYGIGVPMNRERALQYYKQACELGGNYGCYNVKYAYQYGDGVAKDSAQANKYAKKMNLDNLLIEQEYIDKFSQGIYAAKVLADTDKSQRPEFINALFNLLNNRPESDALFFSRIGFNQEKTFRLATLWVQDGDPQMDYQLGLLTLNDFSGHYVDEPYKARPASLKWFRAATEKGVVEAQSLLGGIYSGGEGDEWGIKPDIQEAQKWYGQAAEQGDSDAQIALGKIYYSGATGRTDYAKALALFTQVENDGTNSRSTMPLSWMYYNGLGTAPDCDKAWSYYKKASRYVGKKVEEKIFLSKCAADIQSRKNNADALPRVTLKKASIFSRGITAKPKECALIFQIGTDKIRNMANLHITLELKNADGMATEETLMIPPFGLNTLGIDMQNHDVDPLVTPYDLPLYTQDFCHGIGDIHFTLKSATATINGKNVDLLKADSVRFLDKE | failed
2 | MNLDETLLNRIKVIALLNLKLVRKLVIFIMVNCLVLSGIPAALCMSSAPVVYVTGDGSGDFNCDGTDDHVQINQALKFVAENSAYTTVYLKGPFTYVIDDTLLIGSNTILEGDSSAKIKLVNNANWESRKPMIKERSTGISGITIRGFTIDGNREGNTNVVSGKGYYNLIHLSSCQNIKVYDMYLTNNHGDGLKTDKCTNVEFYDNEIYLLGHDGLYASGCSDVEAYGNTITCRTNSGLRLYNTNKASFHDNVITSEGSGGAGIEIQKYNTPAMDDIEVYNNVIYKTALAGIWIFGSGSYSASTANVHVHHNQIYDTGTKTSNSIIGGIVSNGFSGLIENNVIDGAYGAGIVQKTVYSPAPSGSGFLLTVRNNILSNSRSSSGGGSGYGINNELSGTHSFVLQNNCYYGSAGGDSRNVQLSASDIKVDPQFADRSSHDYHLKSIAGRWNGKSWITDSASSPCIDAGYIASDYSKEPQDNGGRINIGTYGNTKYASKSGTTEVVTNQAPVLNSIQDATVEIGESLTFTVSASDAEEDSLSYSASGLPTGATFDSESGIFAWTPAVGQEGTYSVTFVVSDGELTDSATAIINVSKQEDTSKQEDPSTITGEVYDNRLREASPDIVYQSSPFIDVGAMSIGSYRDIMWFDLSVYADYSEVNSATLSLYWYYPAGKARPEDTVIEIYRPADSWNPDYVSWNKKDKRVAWNNAGGDWYDRNGVLQGSTPYATITLEGSDLPDNRYYELDVTDLVNEYISSKYENTGFLIKARTENNNYIAFYSNDCGNENQKPKLTVTEEASVSPIDVQPIDVTVSGAKDNRLREASAENVYQSSAYVDVGALSGVGRYRDMMQFDLSEYADYSEVNSATLFLYWYYPAGKARPEDTVIEIYRPADSWNPDYVSWNKKDKRVAWNNAGGDWYDRNGVLQGSTPYATITLEGSDLPDNRYYELDVTDLVNEYISGKYENTGFLIKARTENNNYIAFYSSEAGGENQRPKLNLQLKQ | failed
3 | MESIQSSLKHMTGNRSFEKQFTQLKEAVFRSPHVQLFLEEHPSLSPITLEQGLSKLYEYQKEQSHCAHCPGLQKCPNLMKGYQPTLYVERDSLELSYSPCPLKEEEEREKKKRSLIRSLYIPKEILEAKFDDVESEPGRSIASHRALEFALSAKPGEDGMGLYLYGKFGVGKTFLMGAIANELKDRGIDSTIVYVPDFFRELKQSIGDGTFQQKLDFVKNAQVLIFDDIGAETMTSWVRDDVLGVILQYRIMEKLPTLFTSNYDYDELEEHLAYNDKSGTELLKAKRVMERIRHYTVSVMVQGQNRREHQSLEHHHHHH | not failed
4 | MNILLAFKAEPDAGMLAEKEWQAAQGNSGPDVSLLRSLLGADEQAAAALLLAQRKNGTSMSLTALSMGDERALHWLRYLMALGFEDAVLLETAADLRFAPEFVARHIAEWQYQNPLELIITGCQSSEGQNGQTPFLLAEMLGWPCFTQVERFTLDAPFITLEQRTENGLRCCRVRLPAVIAVRQCGEVALPVPGMRQRMAAGKAEIIRKTVAAEMPAMQCLQLARAEQRRGATLIDGQTVAEKAQKLWQYYLCQRMQ | failed
5 | MSLSVTIVMIEDDLGHARLIEKNIRRAGVNNEIIAFTDGTSALNYLFGDDKSGRVSAGRAQLVLLDLNLPDMTGIDILKLVKENPHTRRSPVVILTTTDDQREIQRCYDLGANVYITKPVNYENFANAIRQLGLFFSVMQVPETEGHHHHHH | not failed
6 | MIFYFSGTGNSAWVARQLAEGQNEELLSIAMEIDRNKAYKLKEGEKVGFVFPVYAWGPPKIVLRFIHQLKLDKPGYLFFVCTCGDDTGRTAQIFSSAVTRKGWQCVAGYSVTMPNTYVSLPGFDVDDKDIETQKVQNAVARVRFINEEITSRAQMKQYNCHEGALPFTKSYLLRPLFNAFLMSPKPFHTTEACIGCKKCEKVCPVGNITVTDRPVWGGNCTQCLACYHVCPVHAVEYGKMTGKKGQYKGRLLKDL | failed
7 | ITVADQISHWSAGRIKNRTRIPECIHSSAATTLAGPHTMEGESVKLSSQTLIQAGDDEKNQRTITVNPAHMGKAFKVMNELRSKQLLCDVMIVAEDVEIEAHRVVLAACSPYFCAMFTGDMSESKAKKIEIKDVDGQTLSKLIDYIYTAEIEVTEENVQVLLPAASLLQLMDVRQNCCDFLQSQLHPTNCLGIRAFADVHTCTDLLQQANAYAEQHFPEVMLGEEFLSLSLDQVCSLISSDKLTVSSEEKVFEAVISWINYEKETRLEHMAKLMEHVRLPLLPRDYLVQTVEEEALIKNNNTCKDFLIEAMKYHLLPLDQRLLIKNPRTKPRTPVSLPKVMIVVGGQAPKAIRSVECYDFEEDRWDQIAELPSRRCRAGVVFMAGHVYAVGGFNGSLRVRTVDVYDGVKDQWTSIASMQERRSTLGAAVLNDLLYAVGGFDGSTGLASVEAYSYKTNEWFFVAPMNTRRSSVGVGVVEGKLYAVGGYDGASRQCLSTVEQYNPATNEWIYVADMSTRRSGAGVGVLSGQLYATGGHDGPLVRKSVEVYDPGTNTWKQVADMNMCRRNAGVCAVNGLLYVVGGDDGSCNLASVEYYNPVTDKWTLLPTNMSTGRSYAGVAVIHKSL | not failed
8 | MNAARYAEHLAIFVEVARGGSFSAVARRHGATPSTITRKIDMLEEFVGTNLLVRSTRALLLTEAGETLFARGVSVLEALTDIHNEVIALSDSMYGTLRISCLPTFGKLHVLPWLADLQQRHPSMRIDLDLTERLTNPSVERLDAAIRIGKLKDSSLFAKQIGTQRWVICASPDYLRQRGHPSDLEDLRRLRLIDKLHDPHSMCWRRLVEKGHIDQIEAAFRCDDFEAMRQAALCGLGAAFLPDWVIAQDLAAGALIRLFDDPEGREDGIHLVRALPKMSAKLEVFHQALSNHLGQVRIGGCLPASR | failed
9 | MTKSQQKVSSIEKLSNQEGIISALAFDQRGALKRMMAEHQSETPTVEQIEQLKVLVSEELTQYASSILLDPEYGLPASDARNNDCGLLLAYEKTGYDVNAKGRLPDCLVEWSAKRLKEQGANAVKFLLYYDVDDTEEINIQKKAYIERIGSECVAEDIPFFLEVLTYDDNIPDNKSAEFAKVKPRKVNEAMKLFSEDCFNVDVLKVEVPVNMNFVEGFSEGEVVYTKEEAAQHFRDQDAATHLPYIYLSAGVSAELFQDTLKFAHDSGAQFNGVLCGRATWSGAVKVYIEEGEQAAREWLRTVGFKNIDDLNTVLKTTATSWKNK | not failed
10 | MRLRHLSDPDSLPALDKSFAIERPALGLAPDAPPVRILLLYGSLRARSFSRLAVEEAARLLQFFGAETRIFDPSDLPLPDQVQSDDHPAVKELRALSEWSEGQVWCSPERHGQITSVMKAQIDHLPLEMAGIRPTQGRTLAVMQVSGGSQSFNAVNTLRLLGRWMRMFTIPNQSSIAKAFQEFDAAGRMKPSPYYDRIADVMEELVRFTALVRPHREALTDRYSERKAAGHVIDEATDLSSIAIAPQPLPESETS | not failed
11 | MGHHHHHHSHMKKDPTLQQAHDTMRFFRRGGSLRMLLDDDVTQPLNTVYRYAMQLMEVKEFAGAARLFQLLTIYDAWSFDYWFRLGECCQAQKHWGEAIYAYGRAAQIKIDAPQAPWAAAECYLACDNVCYAIKALKAVVRICGEVSEHQILRLRAEKMLQQLSDRS | failed
